# Laboratory results taken from patent US8058507B2, “HOPM1 mediated disease resistance to Pseudomonas syringae in Arabidopsis” (priority 2007, dated 2011).
# B1: full-length HopM1: Pst DC3000 type III effector, 712-aa virulence protein (SEQ ID NO:34) (protein)
# chain: MISSRIGGAGGVELSRVNQQHDTVPAQTAHPNAVTAGMNPPLTPDQSGSHATESSSAGAARLNVAARHTQLLQAFKAEHGTAPVSGAPMISSRAALLIGSLLQAEPLPFEVMAEKLSPERYQLKQFQGSDLQQRLEKFAQPGQIPDKAEVGQLIKGFAQSVADQLEHFQLMHDASPATVGQHAKADKATLAVSQTALGEYAGRASKAIGEGLSNSIASLDEHISALDLTLQDAEQGNKESLHADRQALVDAKTTLVGLHADFVKSPEAKRLASVAAHTQLDNVVSDLVTARNTVGGWKGAGPIVAAAVPQFLSSMTHLGYVRLSTSDKLRDTIPETSSDANMLKASIIGMVAGIAHETVNSVVKPMFQAALQKTGLNERLNMVPMKAVDTNTVIPDPFELKSEHGELVKKTPEEVAQDKAFVKSERALLNQKKVQGSSTHPVGELMAYSAFGGSQAVRQMLNDVHQINGQTLSARALASGFGGAVSASSQTLLQLKSNYVDPQGRKIPVFTPDRAESDLKKDLLKGMDLREPSVRTTFYSKALSGIQSSALTSALPPVTAQAEGASGTLSAGAILRNMALAATGSVSYLSTLYTNQSVTAEAKALKAAGMGGATPMLDRTETALNNIRHPNRESLPHTFQKSTLSGIPRVAENAYHMGRGALQLPTQMAVDTVRVVDEGVLNAVASAREALKQPTKDDDALRALEEGLLDPR
# modifications: 6xHis tag; Pseudomonas syringae pv. tomato str. DC3000
# Experiments:
# [1] = system: AtMIN7; experiment: Immunoblot of endogenous AtMIN7 in Arabidopsis leaves infiltrated with ΔCEL mutant bacteria (pORF43); format: in vivo; settings: HopM1 delivered by 1×10^8 CFU/ml ΔCEL mutant bacteria (pORF43)
# Procedure: (§1) In brief: leaf disc fractions were homogenized in 1×SDS-polyacrylamide gel electrophoresis (PAGE) sample buffer, boiled for 5 min, and centrifuged for 2 minutes. Proteins in the supernatant were separated on SDS-PAGE gels and transferred to Immobilon-P membrane for immunoblotting procedures (Millipore Corp., Bedford, Mass.).
# AtMIN7 is a low-abundance protein in Arabidopsis plants, however it is detected with a rabbit polyclonal antibody, described herein. […] AtMIN7 was absent on the immunoblots of leaves infiltrated with ΔCEL mutant bacteria (pORF43) but not the leaves infiltrated with water or ΔCEL mutant bacteria (FIG. 2C).
# [2] = system: Pst DC3000 ΔCEL mutant; experiment: Bacterial multiplication and disease symptoms in HopM1 transgenic Arabidopsis plants; format: in vivo, Pseudomonas syringae; settings: protein expressed in transgenic Arabidopsis (Col-0 gl1), DEX-induced
# Procedure: (§2) Following inoculation, infected plants were monitored daily over a 3- to 4-day period for symptom development and bacterial multiplication. For experiments described in FIGS. 1 and 5, plants were sprayed with 30 μM dexamethasone (DEX) 24 h before bacterial inoculation (1×10^6 cfu/ml).
# (§3) Leaves were harvested and surface sterilized as follows: 1) whole leaves were removed from a host plant and gently mixed in a 70% ethanol solution for 1 minute. Leaves were blotted briefly on paper towels then rinsed in sterile distilled water for 1 minute, then blotted dry on paper towels. Leaf disks were excised from leaves with a 0.5 cm^2 or smaller cork borer, depending on the size of the sample leaves; 2) leaf disks from the leaves of 2 or more independent replicate plants were pooled for a single tissue sample and placed in a 1.5-mL microfuge tube with 100 μL sterile distilled water, the amount of leaf tissue per tube was recorded as leaf surface area. Three or more samples were harvested for each time point. […] The number of serial dilutions necessary to get countable colonies were determined for each sample, however dilutions to 10^−7 were usually sufficient for any bacterial strain; 7) The samples were plated on the appropriate medium (e.g., Low salt Luria Bertani) supplemented with the necessary antibiotics to select for the specific inoculated bacterial strain. […]
# [3] = system: Pst DC3000; experiment: as above; format: in vivo, Pseudomonas syringae; settings: full-length HopM1 expressed in transgenic Arabidopsis
# Procedure: as §2, §3
# [4] = system: AtMIN10-HA; experiment: Immunoblot of AtMIN10-HA in transgenic plants infiltrated with ΔCEL mutant bacteria (pORF43); format: in vivo, Arabidopsis; settings: HopM1 delivered by 1×10^8 CFU/ml ΔCEL mutant bacteria (pORF43)
# Procedure: as §1
# Furthermore AtMIN10-HA stably expressed in transgenic plants was also destabilized by HopM1. Leaves of AtMIN10-HA transgenic plants were infiltrated with water or 1×10^8 CFU/ml ΔCEL mutant bacteria or ΔCEL mutant bacteria (pORF43). AtMIN10-HA was detected using the HA epitope antibody.
# [5] = system: AtMIN proteins; experiment: Immunoblot of AtMIN proteins co-expressed with HopM1 in yeast; format: cell-based, Arabidopsis thaliana; settings: co-expression in yeast
# Text: AtMIN fusion proteins expressed from pB42AD were visualized by the HA epitope antibody, as was AtMIN10-HA. HopM1 fusion proteins expressed from pGilda were visualized by the LexA antibody. Coomassie Brilliant Blue-stained gels were used as loading controls. […] AtMIN12 (a putative protein predicted to be targeted to the chloroplast) was not destabilized.
# HopM11-300 or full-length HopM1 pGILDA and each individual test AtMIN pB42AD were co-transformed into yeast cells as described in EXAMPLE III.
# Immunoblot analysis was then performed on yeast cells lines that expressed one each of the 21 AtMIN proteins co-expressed with either HopM11-300 or full-length HopM1(1-712). […] For comparison, AtMIN12 (a hypothetical protein predicted to be targeted to the chloroplast) was not destabilized (FIG. 6A).
molecule,measurement,setting,value
B1,endogenous AtMIN7 protein on immunoblot,[1],absent
same,"complementation of the virulence defect (multiplication, disease symptoms)",[2],almost fully complemented
same,complementation effect on multiplication,[3],did not show this effect
same,stability of AtMIN10-HA,[4],destabilized
same,destabilization of AtMIN proteins in yeast,[5],destabilized
